According to patent publication US20240270871A1 (HUMMINGBIRD BIOSCIENCE PTE, published 2024):
Where two headings read alike, the source gives them in different places.

Legend:
Experiment in all cases: BLI (Octet QK384), IgG captured on anti-human Fc (AHC) biosensors, recombinant human HER3 as analyte, 1:1 global fit, averaged
recombinant human HER3 [1] = molecular target: T1, recombinant human HER3 (human, UniProt P21860 20-643, limits assumed)
Procedure: (§1) Biosensors were first dipped in wells containing assay buffer for 60 s to obtain baseline readings, and then IgGs (at a concentration of 12.5 nM) were captured for 120 s, followed by PBST wash for 60 s to remove any unbound antibody or non-specifically-bound protein and the second baseline was collected after IgG capture. Kinetic measurements for antigen binding were performed by dipping each of the antibody-coated biosensors into wells containing a single serial diluted concentration of recombinant human HER3 for 120 s, followed by a 120 s dissociation time by transferring the biosensors into assay buffer containing wells. AHC biosensors were regenerated for 5 s×4 times after each kinetic cycle using 10 mM glycine pH 1.7 to remove bound protein and washed with assay buffer before a new kinetic cycle. Six 1:2 serial dilutions of recombinant human HER3 (at concentrations ranging from 500 nM to 16 nM), were used to ensure an ideal concentration range of antigen, and binding signal spanning the dynamic range of the assay. Measurements for all sensors were generated in real time in parallel. Data analysis was preformed using Octet QK384 analysis 9.0 software (Pall ForteBio) according to manufacturer's recommendations for analysing a high-affinity antigen-antibody kinetics. […]

recombinant human HER3 [2] = molecular target: T1, recombinant human HER3; remark: listed apart in the source
Procedure: as §1

recombinant human HER3 [3] = molecular target: T1, recombinant human HER3; remark: listed apart in the source
Procedure: as §1

recombinant human HER3 [4] = molecular target: T1, recombinant human HER3; remark: listed apart in the source
Procedure: as §1

recombinant human HER3 [5] = molecular target: T1, recombinant human HER3; remark: listed apart in the source
Procedure: as §1

recombinant human HER3 [6] = molecular target: T1, recombinant human HER3; remark: listed apart in the source
Procedure: as §1

recombinant human HER3 [7] = molecular target: T1, recombinant human HER3; remark: listed apart in the source
Procedure: as §1

Measured: Kd

T1 sequence (P21860 20-643 limits assumed): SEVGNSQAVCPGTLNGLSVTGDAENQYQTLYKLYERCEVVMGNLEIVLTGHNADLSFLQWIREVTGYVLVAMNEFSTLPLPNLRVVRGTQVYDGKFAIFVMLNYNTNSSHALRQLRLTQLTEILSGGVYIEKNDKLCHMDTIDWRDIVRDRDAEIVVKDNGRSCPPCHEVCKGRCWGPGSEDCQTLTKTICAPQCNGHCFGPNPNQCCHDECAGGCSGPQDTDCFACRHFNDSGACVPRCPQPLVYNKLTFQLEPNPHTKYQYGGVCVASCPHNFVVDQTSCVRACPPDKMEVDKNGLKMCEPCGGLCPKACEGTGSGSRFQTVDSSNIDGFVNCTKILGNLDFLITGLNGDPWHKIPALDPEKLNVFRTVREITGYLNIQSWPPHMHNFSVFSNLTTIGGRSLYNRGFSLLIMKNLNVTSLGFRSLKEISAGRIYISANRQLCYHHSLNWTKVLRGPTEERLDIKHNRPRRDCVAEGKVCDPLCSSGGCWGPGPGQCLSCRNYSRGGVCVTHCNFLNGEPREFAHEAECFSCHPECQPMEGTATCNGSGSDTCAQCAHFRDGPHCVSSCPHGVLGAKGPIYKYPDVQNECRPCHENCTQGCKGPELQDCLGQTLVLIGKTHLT

B1: 10D1F hIgG1 (antibody, V domains shown)
VH: QVQLQESGPGLVKPSQTLSLTCTVSGYSITSGYSWHWIRQHPGKGLEWIGSIRYSGGTDYNPSLKSLVTISADTSKNQFSLKLSSVTAADTAVYYCARMTTAPWYPFDYWGQGTTVTVSS
VL: DIQMTQSPSSVSASVGDRVTITCKASQIVGSNVAWYQQKPGKAPEPLIYSASYLYSGVPSRFSGSGSGTDFTLTISSLQPEDFATYYCQQYSSHPLTFGQGTKLEIKR
notes: also called 10D1F.A; antibody product of clones 2-1.1, 2-1.2, 2-1.3, 2-1.4, 2-3.12, 2-3.13, 2-3.15
< 1 pM: recombinant human HER3 [1] | recombinant human HER3 [2] | recombinant human HER3 [3] | recombinant human HER3 [4] | recombinant human HER3 [5] | recombinant human HER3 [6] | recombinant human HER3 [7]
